The values that follow come from the supplement of paper PMC5998384.

Series [1] concerns HeLa Kyoto. The series can be described thus: solubility in G1/S (NP-40 vs SDS abundance) (log2 ratio); higher = more soluble. The note with it: cell cycle stage: G1/S.
For series [2], the system named is HeLa Kyoto. Briefly: melting temperature (median over replicates), in situ; higher = more thermally stable.
The test system of series [3] is HeLa Kyoto. The series can be described thus: solubility change mitosis vs G1/S (difference of NP-40 vs SDS log2 ratios) (log2 ratio difference); higher = more soluble in mitosis.
Series [4] relates to HeLa Kyoto. The series can be described thus: thermal stability score vs G1/S (z-score of summed log2 fold changes over temperatures); higher = more thermally stable than in G1/S.
The mark [5] stands for this setting: cell cycle stage: early G1 (4.5 h after nocodazole release).
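Throughout, for melting temperature (median over replicates), in situ: HeLa Kyoto cells synchronized by double thymidine or nocodazole block, proteins quantified by TMT10plex mass spectrometry, three independent biological replicates.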
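Throughout, for solubility change mitosis vs G1/S (difference of NP-40 vs SDS log2 ratios): synchronized HeLa Kyoto cells (double thymidine block for G1/S, nocodazole release for mitosis), protein amounts in NP-40 versus SDS lysates quantified by mass spectrometry, three biological replicates.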
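Throughout, for solubility in G1/S (NP-40 vs SDS abundance): HeLa Kyoto cells arrested at G1/S by double thymidine block, proteins quantified by TMT10plex mass spectrometry in mild NP-40 versus SDS extracts, three biological replicates.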
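Throughout, for thermal stability score vs G1/S (z-score of summed log2 fold changes over temperatures): synchronized HeLa Kyoto cells, proteins quantified by TMT10plex mass spectrometry, three biological replicates, mitosis taken 0.5 h after nocodazole release, G1/S directly after double thymidine block.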

For “MEFVKCLGHPEEFYNLVRFRIGGKRKVMPKMDQDSLSSSLKTCYKYLNQTSRSFAAVIQALDGEMRNAVCIFYLVLRALDTLEDDMTISVEKKVPLLHNFHSFLYQPDWRFMESKEKDRQVLEDFPTISLEFRNLAEKYQTVIADICRRMGIGMAEFLDKHVTSEQEWDKYCHYVAGLVGIGLSRLFSASEFEDPLVGEDTERANSMGLFLQKTNIIRDYLEDQQGGREFWPQEVWSRYVKKLGDFAKPENIDLAVQCLNELITNALHHIPDVITYLSRLRNQSVFNFCAIPQVMAIATLAACYNNQQVFKGAVKIRKGQAVTLMMDATNMPAVKAIIYQYMEEIYHRIPDSDPSSSKTRQIISTIRTQNLPNCQLISRSHYSPIYLSFVMLLAALSWQYLTTLSQVTEDYVQTGEH [FDFT1]”, the “solubility in G1/S (log2)” value with HeLa Kyoto [1] is -0.184. In addition, the melting temperature in the series on HeLa Kyoto [2] (cell cycle stage: G1/S) amounted to 52.2 °C; in the series on HeLa Kyoto [2] (cell cycle stage: mitosis) it was 51.4 °C. Further, the “solubility change mitosis (log2)” value in the series with HeLa Kyoto [3] was -0.0823. The figures for the thermal stability score in the series on HeLa Kyoto [4] (setting [5]) and in the series with HeLa Kyoto [4] (cell cycle stage: mitosis) were 1.39 and 0.889, respectively.

Consider “MEGAGYRVVFEKGGVYLHTSAKKYQDRDSLIAGVIRVVEKDNDVLLHWAPVEEAGDSTQILFSKKDSSGGDSCASEEEPTFDPGYEPDWAVISTVRPQLCHSEPTRGAEPSCPQGSWAFSVSLGELKSIRRSKPGLSWAYLVLVTQAGGSLPALHFHRGGTRALLRVLSRYLLLASSPQDSRLYLVFPHDSSALSNSFHHLQLFDQDSSNVVSRFLQDPYSTTFSSFSRVTNFFRGALQPQPEGAASDLPPPPDDEPEPGFEVISCVELGPRPTVERGPPVTEEEWARHVGPEGRLQQVPELKNRIFSGGLSPSLRREAWKFLLGYLSWEGTAEEHKAHIRKKTDEYFRMKLQWKSVSPEQERRNSLLHGYRSLIERDVSRTDRTNKFYEGPENPGLGLLNDILLTYCMYHFDLGYVQGMSDLLSPILYVIQNEVDAFWCFCGFMELVQGNFEESQETMKRQLGRLLLLLRVLDPLLCDFLDSQDSGSLCFCFRWLLIWFKREFPFPDVLRLWEVLWTGLPGPNLHLLVACAILDMERDTLMLSGFGSNEILKHINELTMKLSVEDVLTRAEALHRQLTACPELPHNVQEILGLAPPAEPHSPSPTASPLPLSPTRAPPTPPPSTDTAPQPDSSLEILPEEEDEGADS [TBC1D17]”, for which, in the series on HeLa Kyoto [1], the “solubility in G1/S (log2)” value is -0.0906. In addition, the results for the melting temperature with HeLa Kyoto [2] (cell cycle stage: G1/S) and with HeLa Kyoto [2] (cell cycle stage: mitosis) were 51.4 °C and 50.7 °C, respectively. The “solubility change mitosis (log2)” value with HeLa Kyoto [3] was -0.0875. For the same sequence, the thermal stability score is -0.527 in the series with HeLa Kyoto [4] (setting [5]) and -0.608 with HeLa Kyoto [4] (cell cycle stage: mitosis).

Regarding “MEGCVSNLMVCNLAYSGKLEELKESILADKSLATRTDQDSRTALHWACSAGHTEIVEFLLQLGVPVNDKDDAGWSPLHIAASAGRDEIVKALLGKGAQVNAVNQNGCTPLHYAASKNRHEIAVMLLEGGANPDAKDHYEATAMHRAAAKGNLKMIHILLYYKASTNIQDTEGNTPLHLACDEERVEEAKLLVSQGASIYIENKEEKTPLQVAKGGLGLILKRMVEG [PSMD10]”, the “solubility in G1/S (log2)” value in the series on HeLa Kyoto [1] came to 0.145. For the same sequence, the melting temperature with HeLa Kyoto [2] (cell cycle stage: G1/S) came to 48.5 °C; in the series with HeLa Kyoto [2] (cell cycle stage: mitosis) it was 49.8 °C. The “solubility change mitosis (log2)” value with HeLa Kyoto [3] came out at 0.136. Further, the thermal stability score with HeLa Kyoto [4] (setting [5]) was determined as 0.248; in the series with HeLa Kyoto [4] (cell cycle stage: mitosis), 1.31.

Turning to “MEGDAVEAIVEESETFIKGKERKTYQRRREGGQEEDACHLPQNQTDGGEVVQDVNSSVQMVMMEQLDPTLLQMKTEVMEGTVAPEAEAAVDDTQIITLQVVNMEEQPINIGELQLVQVPVPVTVPVATTSVEELQGAYENEVSKEGLAESEPMICHTLPLPEGFQVVKVGANGEVETLEQGELPPQEDPSWQKDPDYQPPAKKTKKTKKSKLRYTEEGKDVDVSVYDFEEEQQEGLLSEVNAEKVVGNMKPPKPTKIKKKGVKKTFQCELCSYTCPRRSNLDRHMKSHTDERPHKCHLCGRAFRTVTLLRNHLNTHTGTRPHKCPDCDMAFVTSGELVRHRRYKHTHEKPFKCSMCDYASVEVSKLKRHIRSHTGERPFQCSLCSYASRDTYKLKRHMRTHSGEKPYECYICHARFTQSGTMKMHILQKHTENVAKFHCPHCDTVIARKSDLGVHLRKQHSYIEQGKKCRYCDAVFHERYALIQHQKSHKNEKRFKCDQCDYACRQERHMIMHKRTHTGEKPYACSHCDKTFRQKQLLDMHFKRYHDPNFVPAAFVCSKCGKTFTRRNTMARHADNCAGPDGVEGENGGETKKSKRGRKRKMRSKKEDSSDSENAEPDLDDNEDEEEPAVEIEPEPEPQPVTPAPPPAKKRRGRPPGRTNQPKQNQPTAIIQVEDQNTGAIENIIVEVKKEPDAEPAEGEEEEAQPAATDAPNGDLTPEMILSMMDR [CTCF]”, in the series with HeLa Kyoto [1], the “solubility in G1/S (log2)” value was -0.451. Further, the melting temperature with HeLa Kyoto [2] (cell cycle stage: G1/S) was 55.5 °C; in the series with HeLa Kyoto [2] (cell cycle stage: mitosis), 54.4 °C. Further, the “solubility change mitosis (log2)” value in the series on HeLa Kyoto [3] worked out at 0.0343. Also, the thermal stability score with HeLa Kyoto [4] (setting [5]) is -1.57; in the series on HeLa Kyoto [4] (cell cycle stage: mitosis), -1.93.

On to “MEGGLADGEPDRTSLLGDSKDVLGPSTVVANSDESQLLTPGKMSQRQGKEAYPTPTKDLHQPSLSPASPHSQGFERGKEDISQNKDESSLSMSKSKSESKLYNGSEKDSSTSSKLTKKESLKVQKKNYREEKKRATKELLSTITDPSVIVMADWLKIRGTLKSWTKLWCVLKPGVLLIYKTQKNGQWVGTVLLNACEIIERPSKKDGFCFKLFHPLEQSIWAVKGPKGEAVGSITQPLPSSYLIIRATSESDGRCWMDALELALKCSSLLKRTMIREGKEHDLSVSSDSTHVTFYGLLRANNLHSGDNFQLNDSEIERQHFKDQDMYSDKSDKENDQEHDESDNEVMGKSEESDTDTSERQDDSYIEPEPVEPLKETTYTEQSHEELGEAGEASQTETVSEENKSLIWTLLKQVRPGMDLSKVVLPTFILEPRSFLDKLSDYYYHADFLSEAALEENPYFRLKKVVKWYLSGFYKKPKGLKKPYNPILGETFRCLWIHPRTNSKTFYIAEQVSHHPPISAFYVSNRKDGFCLSGSILAKSKFYGNSLSAILEGEARLTFLNRGEDYVMTMPYAHCKGILYGTMTLELGGTVNITCQKTGYSAILEFKLKPFLGSSDCVNQISGKLKLGKEVLATLEGHWDSEVFITDKKTDNSEVFWNPTPDIKQWRLIRHTVKFEEQGDFESEKLWQRVTRAINAKDQTEATQEKYVLEEAQRQAARDRKTKNEEWSCKLFELDPLTGEWHYKFADTRPWDPLNDMIQFEKDGVIQTKVKHRTPMVSVPKMKHKPTRQQKKVAKGYSSPEPDIQDSSGSEAQSVKPSTRRKKGIELGDIQSSIESIKQTQEEIKRNIMALRNHLVSSTPATDYFLQQKDYFIIFLLILLQVIINFMFK [OSBPL8]”, for which the “solubility in G1/S (log2)” value in the series with HeLa Kyoto [1] is -0.118. Further, the results for the melting temperature in the series with HeLa Kyoto [2] (cell cycle stage: G1/S) and in the series with HeLa Kyoto [2] (cell cycle stage: mitosis) were 49.8 °C and 50.9 °C, respectively. The “solubility change mitosis (log2)” value in the series on HeLa Kyoto [3] was -0.172. Besides, the values for the thermal stability score with HeLa Kyoto [4] (setting [5]) and in the series with HeLa Kyoto [4] (cell cycle stage: mitosis) were 0.167 and 0.896, respectively.
